According to patent US20250269025A1 (AVENCELL THERAPEUTICS, published 2025):
No end group written: not given here.

Columns and labels:
[1] = target: T1, CD123 on CD123 positive AML cells (Oci-AML3, Molm-13, MV4-11, primary AML cells) (human, UniProt P26951 19-378); assay: cell-based or functional assay
[2] = target: T1, CD123 on CD123 positive AML cells …; assay: cell-based or functional assay; remark: listed apart in the source
[3] = target: T1, CD123 on CD123 positive AML cells …; assay: cell-based or functional assay; remark: listed apart in the source
[4] = target: T1, CD123 on CD123 positive AML cells …; assay: cell-based or functional assay; remark: listed apart in the source
[5] = target: T1, CD123 on CD123 positive AML cells …; assay: cellular binding assay per table caption, Molm-13 cells
[6] = target: T1, CD123 on CD123 positive AML cells …; assay: cellular binding assay per table caption, Oci-AML3 cells
[7] = target: T2, La epitope 5B9 (SEQ ID No. 28) fused to human Fc domain (human, also: fused to human Fc domain, order, isotype, linker not given here); assay: SPR, Biacore X100, La epitope 5B9-human Fc on CM5 chip; KD 5B9 (second number of the cell)
T2 construct: Coupled to a CM5 sensor chip; not shown: human Fc domain
T2 chain: KPLPEVTDEY
Protocol: Furthermore, binding of different variants of the targeting module according to the invention was analyzed using the La epitope 5B9 (SEQ ID No. 28) fused to human Fc domain which was coupled to a CM5 sensor chip on a Biacore X100 device (FIG. 3). The targeting modules were purified monomers. The targeting modules were concentrated between 2.47 to 200 nM and measured in technical duplicates. For data fitting and KD calculation a two-state-reaction binding model was applied.

human CD123-Fc = target: T3, human CD123-Fc (human, UniProt P26951 19-305, limits assumed); assay: SPR, Biacore X100, human CD123-Fc on CM5 chip, 1:1 model; KD CD123 (first number of the cell)
T3 construct: Coupled to a CM5 sensor chip; also called soluble recombinant CD123; not shown: Fc part
T3 sequence (looked up): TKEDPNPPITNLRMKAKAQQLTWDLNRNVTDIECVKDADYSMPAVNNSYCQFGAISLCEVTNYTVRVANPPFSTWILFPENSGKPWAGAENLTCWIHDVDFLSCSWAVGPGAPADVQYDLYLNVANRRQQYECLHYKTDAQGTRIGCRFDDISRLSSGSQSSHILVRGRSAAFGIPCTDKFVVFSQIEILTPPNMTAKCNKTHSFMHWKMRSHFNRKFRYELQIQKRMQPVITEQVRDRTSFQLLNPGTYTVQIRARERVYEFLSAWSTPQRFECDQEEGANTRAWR
Protocol: Binding of different variants of the targeting module according to the invention was analyzed by SPR measurements using human CD123-Fc coupled to a CM5 sensor chip on a Biacore X100 device (FIG. 2). Targeting modules were purified monomer except for the targeting module according to SEQ ID No. 8. […] For data fitting and KD calculation a 1:1 binding model was applied.

[8] = target: T1, CD123 on CD123 positive AML cells …; assay: flow cytometry on Oci-AML3 cells, anti-His-PE detection. Half-maximal binding from a four-parameter fit of gMFI. Unit taken from the concentration axis [M]
Protocol: Cellular binding of CD123-binding targeting modules (TM) was tested on CD123 positive target cell lines Oci-AML3 and Molm-13: A) SEQ ID No. 5 to Oci-AML3, B) SEQ ID No. 9 to Oci-AML3, C) SEQ ID No. 4 to Molm-13 and D) SEQ ID No. 6 to Molm-13. The affinity of TMs was analyzed by flow cytometry. The TMs were titrated on an AML cell lines and then detected by a mouse anti-His-tag antibody conjugated to phycoerythrin.
Different concentrations of R-TM123 were incubated with cells, washed and quantified. A dose-response curve was obtained when the geometric mean fluorescence (MFI) was plotted against the TM concentration.

B1: targeting module according to SEQ ID No. 5 (bispecific antibody)
chain: EVQLQQSGPELVKPGASVKMSCKASGYTFTDYYMKWVKQSHGKSLEWIGDIIPSNGATFYNQKFKGKATLTVDRSSSTAYMHLNSLTSEDSAVYYCTRSHLLRASWFAYWGQGTLVTVSAASGGGGSGGGGSGGGGSDFVMTQSPSSLTVTAGEKVTMSCKSSQSLLNSGNQKNYLTWYLQKPGQPPKLLIYWASTRESGVPDRFTGSGSGTDFTLTISSVQAEDLAVYYCQNDYSYPYTFGGGTKLEIKAAARGDIVMTQSPDSLAVSLGERATINCKSSQSLLNSRTPKNYLAWYQQKPGQPPKLLIYWASTRKSGVPDRFSGSGSGTDFTLTISSLQAEDVAVYYCKQSYNLLTFGGGTKVEIKGGGGSGGGGSGASAAGGGGSGGGGSQVQLVQSGAEVKKPGASVKVSCKASGYTFTHYYIYWVRQAPGQGLEWMGGVNPSNGGTHFNEKFKSRVTMTRDTSISTAYMELSRLRSDDTAVYYCARSEYDYGLGFAYWGQGTLVTVSSGGGGSHHHHHHHH
notes: also called R-TM123; muCD123 + 5B9-VL-VH
- EC50 of R-TM123 for CD25 expression on CD4+ RevCAR-T, co-culture with MOLM-13, Donor #1 [1]: 2.6 pM
- EC50 of R-TM123 for CD25 expression on CD4+ RevCAR-T, co-culture with MOLM-13, Donor #2 [1]: 2.2 pM
- EC50 of R-TM123 for CD25 expression on CD4+ RevCAR-T, co-culture with MOLM-13, Donor #3 [1]: 2.3 pM
- EC50 of R-TM123 for CD25 expression on CD4+ RevCAR-T, co-culture with MOLM-13, Donor #4 [1]: 1.2 pM
- EC50 of R-TM123 for CD25 expression on CD4+ RevCAR-T, co-culture with MOLM-13, Mean [1]: 2.1 pM
- EC50 of R-TM123 for CD25 expression on CD4+ RevCAR-T, co-culture with MV4-11, Donor #1 [1]: 8 pM
- EC50 of R-TM123 for CD25 expression on CD4+ RevCAR-T, co-culture with MV4-11, Donor #2 [1]: 6.5 pM
- EC50 of R-TM123 for CD25 expression on CD4+ RevCAR-T, co-culture with MV4-11, Donor #3 [1]: 10.2 pM
- EC50 of R-TM123 for CD25 expression on CD4+ RevCAR-T, co-culture with MV4-11, Donor #4 [1]: 8.9 pM
- EC50 of R-TM123 for CD25 expression on CD4+ RevCAR-T, co-culture with MV4-11, Mean [1]: 8.4 pM
- EC50 of R-TM123 for CD25 expression on CD4+ RevCAR-T, co-culture with OCI-AML3, Donor #1 [1]: 2.9 pM
- EC50 of R-TM123 for CD25 expression on CD4+ RevCAR-T, co-culture with OCI-AML3, Donor #2 [1]: 3 pM
- EC50 of R-TM123 for CD25 expression on CD4+ RevCAR-T, co-culture with OCI-AML3, Donor #3 [1]: 2.3 pM
- EC50 of R-TM123 for CD25 expression on CD4+ RevCAR-T, co-culture with OCI-AML3, Donor #4 [1]: 2.4 pM
- EC50 of R-TM123 for CD25 expression on CD4+ RevCAR-T, co-culture with OCI-AML3, Mean [1]: 2.6 pM
- EC50 of R-TM123 for CD25 expression on CD8+ RevCAR-T, co-culture with MOLM-13, Donor #1 [1]: 5.2 pM
- EC50 of R-TM123 for CD25 expression on CD8+ RevCAR-T, co-culture with MOLM-13, Donor #2 [1]: 4.3 pM
- EC50 of R-TM123 for CD25 expression on CD8+ RevCAR-T, co-culture with MOLM-13, Donor #3 [1]: 6 pM
- EC50 of R-TM123 for CD25 expression on CD8+ RevCAR-T, co-culture with MOLM-13, Donor #4 [1]: 2.1 pM
- EC50 of R-TM123 for CD25 expression on CD8+ RevCAR-T, co-culture with MOLM-13, Mean [1]: 4.4 pM
- EC50 of R-TM123 for CD25 expression on CD8+ RevCAR-T, co-culture with MV4-11, Donor #1 [1]: 6.7 pM
- EC50 of R-TM123 for CD25 expression on CD8+ RevCAR-T, co-culture with MV4-11, Donor #2 [1]: 4.3 pM
- EC50 of R-TM123 for CD25 expression on CD8+ RevCAR-T, co-culture with MV4-11, Donor #3 [1]: 7.2 pM
- EC50 of R-TM123 for CD25 expression on CD8+ RevCAR-T, co-culture with MV4-11, Donor #4 [1]: 5.1 pM
- EC50 of R-TM123 for CD25 expression on CD8+ RevCAR-T, co-culture with MV4-11, Mean [1]: 5.8 pM
- EC50 of R-TM123 for CD25 expression on CD8+ RevCAR-T, co-culture with OCI-AML3, Donor #1 [1]: 8.7 pM
- EC50 of R-TM123 for CD25 expression on CD8+ RevCAR-T, co-culture with OCI-AML3, Donor #2 [1]: 15.7 pM
- EC50 of R-TM123 for CD25 expression on CD8+ RevCAR-T, co-culture with OCI-AML3, Donor #3 [1]: 14.6 pM
- EC50 of R-TM123 for CD25 expression on CD8+ RevCAR-T, co-culture with OCI-AML3, Donor #4 [1]: 4.8 pM
- EC50 of R-TM123 for CD25 expression on CD8+ RevCAR-T, co-culture with OCI-AML3, Mean [1]: 11 pM
- EC50 of R-TM123 for RevCAR-T mediated lysis of MOLM-13, Donor #1 [2]: 1.3 pM
- EC50 of R-TM123 for RevCAR-T mediated lysis of MOLM-13, Donor #2 [2]: 2.2 pM
- EC50 of R-TM123 for RevCAR-T mediated lysis of MOLM-13, Donor #3 [2]: 2.6 pM
- EC50 of R-TM123 for RevCAR-T mediated lysis of MOLM-13, Donor #4 [2]: 1 pM
- EC50 of R-TM123 for RevCAR-T mediated lysis of MOLM-13, Mean [2]: 1.8 pM
- EC50 of R-TM123 for RevCAR-T mediated lysis of MV4-11, Donor #1 [2]: 2.8 pM
- EC50 of R-TM123 for RevCAR-T mediated lysis of MV4-11, Donor #2 [2]: 4.2 pM
- EC50 of R-TM123 for RevCAR-T mediated lysis of MV4-11, Donor #3 [2]: 3.8 pM
- EC50 of R-TM123 for RevCAR-T mediated lysis of MV4-11, Donor #4 [2]: 3.3 pM
- EC50 of R-TM123 for RevCAR-T mediated lysis of MV4-11, Mean [2]: 3.5 pM
- EC50 of R-TM123 for RevCAR-T mediated lysis of OCI-AML3, Donor #1 [2]: 8.6 pM
- EC50 of R-TM123 for RevCAR-T mediated lysis of OCI-AML3, Donor #2 [2]: 6.7 pM
- EC50 of R-TM123 for RevCAR-T mediated lysis of OCI-AML3, Donor #3 [2]: 4.9 pM
- EC50 of R-TM123 for RevCAR-T mediated lysis of OCI-AML3, Donor #4 [2]: 2.7 pM
- EC50 of R-TM123 for RevCAR-T mediated lysis of OCI-AML3, Mean [2]: 5.7 pM
- EC50 of R-TM123 for GM-CSF release by RevCAR-T, co-culture with MOLM-13 [3]: 37.7 pM
- EC50 of R-TM123 for Granzyme B release by RevCAR-T, co-culture with MOLM-13 [3]: 4.4 pM
- EC50 of R-TM123 for IFN-γ release by RevCAR-T, co-culture with MOLM-13 [3]: 19.3 pM
- EC50 of R-TM123 for IL-2 release by RevCAR-T, co-culture with MOLM-13 [3]: 63.9 pM
- EC50 of R-TM123 for IL-4 release by RevCAR-T, co-culture with MOLM-13 [3]: 54.2 pM
- EC50 of R-TM123 for Perforin release by RevCAR-T, co-culture with MOLM-13 [3]: 3.7 pM
- EC50 of R-TM123 for TNF-α release by RevCAR-T, co-culture with MOLM-13 [3]: 53.9 pM
- EC50 of R-TM123 for lysis of primary AML cells AML 1 by RevCAR-T, Donor #2 [4]: 3.4 pM
- EC50 of R-TM123 for lysis of primary AML cells AML 1 by RevCAR-T, Donor #3 [4]: 2.9 pM
- EC50 of R-TM123 for lysis of primary AML cells AML 1 by RevCAR-T, Donor #4 [4]: 1.8 pM
- EC50 of R-TM123 for lysis of primary AML cells AML 1 by RevCAR-T, Mean [4]: 2.7 pM
- EC50 of R-TM123 for lysis of primary AML cells AML 3 by RevCAR-T, Donor #2 [4]: 3 pM
- EC50 of R-TM123 for lysis of primary AML cells AML 3 by RevCAR-T, Donor #3 [4]: 3.8 pM
- EC50 of R-TM123 for lysis of primary AML cells AML 3 by RevCAR-T, Donor #4 [4]: 2.2 pM
- EC50 of R-TM123 for lysis of primary AML cells AML 3 by RevCAR-T, Mean [4]: 3 pM
- EC50 of R-TM123 for lysis of primary AML cells AML 4 by RevCAR-T, Donor #2 [4]: 1.7 pM
- EC50 of R-TM123 for lysis of primary AML cells AML 4 by RevCAR-T, Donor #3 [4]: 3.1 pM
- EC50 of R-TM123 for lysis of primary AML cells AML 4 by RevCAR-T, Donor #4 [4]: 1.8 pM
- EC50 of R-TM123 for lysis of primary AML cells AML 4 by RevCAR-T, Mean [4]: 2.2 pM
- EC50 of R-TM123 for lysis of primary AML cells AML 5 by RevCAR-T, Donor #2 [4]: 2.2 pM
- EC50 of R-TM123 for lysis of primary AML cells AML 5 by RevCAR-T, Donor #3 [4]: 3.6 pM
- EC50 of R-TM123 for lysis of primary AML cells AML 5 by RevCAR-T, Donor #4 [4]: 2.1 pM
- EC50 of R-TM123 for lysis of primary AML cells AML 5 by RevCAR-T, Mean [4]: 2.6 pM
- EC50 [5]: 1.2 pM
- EC50 [6]: 3 pM
- Kd [7]: 3400 pM
- Kd (human CD123-Fc): 23 pM
- Kd [8]: 2920 pM
